This is an account of results in the DeepSol protein solubility set.

The nature of the series: soluble on expression in E. coli; label from the status in PepcDB or PDB records.
For “LVRGGWLWRQSSILRRWKRNWFALWLDGTLGYYHDETAQDEEDRVVIHFNVRDIKVGQECQDVQPPEGRSRDGLLTVNLREGSRLHLCAETRDDAIAWKTALMEANSTPAPAGATVP”, the “soluble on expression in E. coli” value is on record as “soluble”.

With “MAAATATAAATSKKMTYEFTIDDDELSEDGKPSTDQATMCNIYKLNLPASASILSKQIAKSQAKRAKKEERHRRRVDLSTVREQDETRVSNSEENSQNASPRPMTASALVPPDEIPDSAPASHCGGGGGRSRIDSAPLGVKLQRQASLPEDQRKAEPMDEEEAELLAMLLGGIERNERKQMTLNGAGNQKIQEAPIVQAPQIPPSPGLPRLPPGAKVSEWLLERSSSPDNVSVISSVLLEDSGLLLNYQNSVGDEEEDVFFDAEEEKPDDVVNCVEHELQGKSLRVFVRDLSHVLGLSLNRNMAAMTQSLVRVEEETTTTDGPAANDSFRTGRSTSVSPRPTNEQFLRNTNGSATFNVKHSSTLARLQKLTPPNNGNTNPILSTTTTPLSSRTTRSVLRVHNVNSVPRPSVQNSTMSKSSVTANQTNRRAFSGVRMPDMNPTLQKSSPPVVTINPLTPSRPASVASSIGARSGVNGTMTASNLEGLQDLIQQQEDALRRAALNDQSTERKMSWQSDQDANNRQSTSVHSSLGSICSSKSIDGAHALSKMGTPTASRIPTPRSRLPTPRGSNLPKRVYVFFGNFGPNSR”, the “soluble on expression in E. coli” value is on record as “not soluble”.

As to “MAADRNTGHTEEDKLDVLKSTQTVIHKALEKLGYPEEVYELLKEPMRLLTVKIPVRMDDGSVKIFTGYRAHNDSVGPTKGGIRFHPNVTEKEVKALSIWMSLKCGIIDLPYGGGKGGIVCDPRDMSFRELERLSRGYVRAISQIVGPTKDVPAPDVFTNSQIMAWMMDEYSRIDEFNSPGFITGKPLVLGGSHGRESATAKGVTICIKEAAKKRGIDIKGARVVVQGFGNAGSYLAKFMHDAGAKVVGISDAYGGLYDPEGLDIDYLLDRRDSFGTVTKLFNDTITNQELLELDCDILVPAAIENQITEENAHNIRAKIVVEAANGPTTLEGTKILSDRDILLVPDVLASAGGVTVSYFEWVQNNQGFYWSEEEVEEKLEKMMVKSFNNIYEMANNRRIDMRLAAYMVGVRKMAEASRFRGWI”, the “soluble on expression in E. coli” value was “soluble”. Take “MAAEEGAVIACHTKQEFDTHMANGKDTGKLVIIDFTASWCGPCRVIAPVFAEYAKKFPGAIFLKVDVDELKDVAEAYNVEAMPTFLFIKDGEKVDSVVGGRKDDIHTKIVALMGSAST”: the “soluble on expression in E. coli” value is “soluble”.

As for MAAGVAAWLPFARAAAIGWMPVASGPMPAP, the “soluble on expression in E. coli” value is “soluble”. For “MAAIINQRVEQGESSMGGAKPALLHRITGHVARINDVILLSKDEGVWTASDDRSVRLYLKRDNDQFWPSIHHFMPVAPTSLYYSEETYKLLVGLINGNVYEFSVADDFNSMTESRKWTCHAGPISGLGFALSSELIFSCSRDKSIVWHCSENSNKMGSYLLENSCTAMVIDLPFVFVGDHGGHVTVLRIVDNQPNLVSKLSAHTNAITSLTWDGNKKVLYSGSSDHLIIMWDIGGGRGEAYELNGHNGKVTTLCAAPAAKRLFSADEHGKLMCWDMNCKRVETPEWKTSDCCQKCNQPFFWNLQAMWQRKVVGLRQHHCRTCGSAVCGSCCDNWTTYPPMGYETKIRICNDCNARMKDNPQNFNLTPLAIPHEIHTGITAMHLQETLGLLVTSGQNRVIMIWDVRSVCSAPSGSQ” the value was “not soluble”; for “MAAKPVLYYFNGRGKMESIRWLLAAAGVEFEEVFLETREQYEKLLQSGILMFQQVPMVEIDGMKLVQTRAILNYIAGKYNLYGKDLKERALIDMYVGGTDDLMGFLLSFPFLSAEDKVKQCAFVVEKATSRYFPAYEKVLKDHGQDFLVGNRLSWADIHLLEAILMVEEKKSDALSGFPLLQAFKKRISSIPTIKKFLAPGSKRKPISDDKYVETVRRVLRMYYDVKPH”, “soluble”; for “MAALAGDEAWRCRGCGTYVPLSQRLYRTANEAWHGSCFRCSECQESLTNWYYEKDGKLYCHKDYWAKFGEFCHGCSLLMTGPAMVAGEFKYHPECFACMSCKVIIEDGDAYALVQHATLYCGKCHNEVVLAPMFERLSTESVQDQLPYSVTLISMPATTECRRGFSVTVESASSNYATTVQVKEVNRMHISPNNRNAIHPGDRILEINGTPVRTLRVEEVEDAIKQTSQTLQLLIEHDPVPQRLDQLRLDARLPPHMQSTGHTLMLSTLDTKENQEGTLRRRSLRRSNSISKSPGPSSPKEPLLLSRDISRSESLRCSSSYSQQIFRPCDLIHGEVLGKGFFGQAIKVTHKATGKVMVMKELIRCDEETQKTFLTEVKVMRSLDHPNVLKFIGVLYKDKKLNLLTEYIEGGTLKDFLRSVDPFPWQQKVRFAKGISSGMAYLHSMCIIHRDLNSHNCLIKLDKTVVVADFGLSRLIVEERKRPPVEKATTKKRTLRKSDRKKRYTVVGNPYWMAPEMLNGKSYDETVDVFSFGIVLCEIIGQVYADPDCLPRTLDFGLNVKLFWEKFVPTDCPPAFFPLAAICCKLEPESRPAFSKLEDSFEALSLFLGELAIPLPAELEDLDHTVSMEYGLTRDSPP”, “soluble”. For “MAALASSLIRQKREVREPGGSRPVSAQRRVCPRGTKSLCQKQLLILLSKVRLCGGRPARPDRGPEPQLKGIVTKLFCRQGFYLQANPDGSIQGTPEDTSSFTHFNLIPVGLRVVTIQSAKLGHYMAMNAEGLLYSSPHFTAECRFKECVFENYYVLYASALYRQRRSGRAWYLGLDKEGQVMKGNRVKKTKAAAHFLPKLLEVAMYQEPSLHSVPEASPSSPPAPLEHHHHHH”, the “soluble on expression in E. coli” value is given as “not soluble”. Then “MAALRNGLEGSSEETSFHDESLQDDREEIENNSYHMHPAGIILTKVGYYTIPSMDDLAKITNEKGECIVSDFTIGRKGYGSIYFEGDVNLTNLNLDDIVHIRRKEVVVYLDDNQKPPVGEGLNRKAEVTLDGVWPTDKTSRCLIKSPDRLADINYEGRLEAVSRKQGAQFKEYRPETGSWVFKVSHF”, with “soluble”. Then “MAALRVPLSQQQLEQLKANKKWGEYVEAQAGQKYEHFTSPYKQSMLTVKEWIMPQGLVIYVRTDDGTYPARVVNAGPDNICVRIVKANKSDPEPETQISYDQVIKSTEVLKMEPLKFKWIRKKTDNLYSIEAFQNLSGFFNKKVFELLKKGDFMEYQHDDEPWKCTIVEIIENHNGLIFIRNGLFVRCVHMFSPFCHELGWADKLKETNDERAAGMTYKILIKLENDRDQRVIVDRHIFRNNTISPHRFQDLQVLVYLEEDHFYLAHVKCKTRKTGLTDSYFFQISRGTELVRDSLLSDNKMPVQFHLNDARIFGYRDLERLHFPIDLPDGVQKIEGESNVDAYIRTYCLTDKEKARVPRLNESEKRAMFDRKILSNEIGVHMKHGAMLRDSKFNPTAGSLTPWAGTKCAEVSWFLPSSGRTRNRRADLLAARVVKYTEHIAHLYVARLDKTIYMHVADPRLHPAGFADGVNLPIEYSDAFAKDADIEIQISQLEETLDNLACEQDSTKDQN”, with “not soluble”. Then “MAASVEQREGTIQVQGQALFFREALPGSGQARFSVLLLHGIRFSSETWQNLGTLHRLAQAGYRAVAIDLPGLGHSKEAAAPAPIGELAPGSFLAAVVDALELGPPVVISPSLSGMYSLPFLTAPGSQLPGFVPVAPICTDKINAANYASVKTPALIVYGDQDPMGQTSFEHLKQLPNHRVLIMKGAGHPCYLDKPEEWHTGLLDFLQGLQ”, with “soluble”; and “MAATVDTMSEEVKRLIALYELTPHPASGGWFRETYRSDVQVEAEGFDGKRSVLTMIYYLMQAGQPDPFHRVKSDETFVHNLGGSMKIHMIHPDGSYSCSILGNPLEHPEARHQVVVPRRVWFAQEVDGYCLASVLVAPGFDFKDFSLGKREELIKEYPQHRDVIMRCTSSDP”, with “soluble”; and “MAAVSEFRLLQLPERAQRISLSHMSYNSIFSLSLCSTKKNKRPQGVPIRTLTYEGIEITSDRINRKHPVSDTFLSKAGFLDFYNCTYKSSQFIHKFLIHNTTTVFTRGVPRYNLNDLLVSNGQKIYVQVGRGIIFLEKDVNKFLKHWIRGSNRELKSLAFRAPMNMEIEHAIETILKGICYKDAREEDAASIKLVHICNGNTFKHPIIKISGFRIKRFDGTNATVVIRLLNANSVCFTSYVLHFLHNTSIMAAVSPFRLLQLPQRAQRISLSHMSSVSVFSLSLCATKNTKDLVRSLNLKCIRLCLEFFDDLILSICFEGCIIDFYLYMLNSSQKITPGLCAPKNVQVSTNDVKNFKWERPNLKFRNWIDHFLYILNISTLDVAMGKGVRVKKLSYHILDMTSNETNRTNSVNDTFLSKAEFIVLSNCTYETSQSIHKFLICNNATLFSNVFSPYNLNDLLISNCQNLLVNVDRGNIFLGQDVNKFLKHWIRGSNVTLKCLALEAPMNMERELVIETILEGIDYKVKEEEVSVYKKMLDIFNHGNPSITKIRGFRITRFDGTNCDVVIRTCNPSVMRYSLNMFIF”, with “not soluble”. Regarding “MAAYKDLTKEELLELKSGLQAQFEEVKARGLKLDMSRGKPAAAQLNLSMEMMNILNSGTDLVCEDGVDCRNYGGLDGIAEAKQLLADMMEVPKDNVIVFGNSSLNVMYDTVARAMTHGIMGSTPWCKLDKVKFLCPVPGYDRHFAITEHFGIEMINVPMTATGPDMDLVEKLVSEDPAIKGIWCVPKYSNPQGITYSDETVYRFANLKPAAEDFRIFWDNAYCVHHLYEDKQDYLLEILMECKKAGNQDMVYKFSSTSKISFPGSGIAAIAASDANLADIRNMMKVQTIGHDKVNQLRHVRFFKDIHGIVEHMKKHADIMRPKFETVINTLERELGGLEIGSWIAPRGGYFISFDAMEGCAKAIVAKAKEAGLVMTGAGATFPYGKDPKDSNIRIAPSYPTPEELAVAAEIFVLSVKLVSIDKLLKNL”, the “soluble on expression in E. coli” value is reported as “not soluble”. Then “MAAYRADDDYDFLYKVVLIGDSGVGKSNLLSRFTRNEFSLESKSTIGVEFATRSIHVDEKIVKAQIWDTAGQERYRAITSAYYRGAVGALLVYDVTRHVTFENVERWLKELRDHTEANIVIMLVGNKADLRHLRAVSTEDAKAFAERENTFFMETSALEALNVENAFTEVLSQIYRVASKKALDIGDDHTTLPKGQSINVGSKDDVSEVKKVGCCSS”, with “soluble”; and “MADEKMSEFTDEELNKKVKELQDAVIEKVRTEAETPAVSGGYPGSNAYRPELDRVPSREEILERISWLREMIDDILKPKPSDFDPLIEKTEKLRDLFGVESHQPGGDSRLRNIDTSKNAIQQWDGAFADNLAEKYFAPLEDVRGNHGRMAKVLNENAVAMKATYVHARGQAKRTLDDGVKAIEAIVDSKGSDLKILLAILTGATSLITPLLPSKTAVQLGSAGLSTLLSNLGEAGPEEQEEVPLGADTPEGVMDNVKEALEKVKTKRGEDEDSIIKAVNDSEKAIYERMTKSTHQTEDDPIYAPRPTIMDSSKPSEGLTKD”, with “not soluble”.

As for “MADFARSLSITTPEEMIEKAKGETAYLPCKFTLSPEDQGPLDIEWLISPADNQKVDQVIILYSGDKIYDDYYPDLKGRVHFTSNDLKSGDASINVTNLQLSDIGTYQCKVKKAPGVANKKIHLVVLVK”, the “soluble on expression in E. coli” value is given as “soluble”.

With “MADILLLDNVDSFTYNLVDQLRASGHQVVIYRNQIGAEVIIERLQHMEQPVLMLSPGPGTPSEAGCMPELLQRLRGQLPIIGICLGHQAIVEAYGGQVGQAGEILHGKASAIAHDGEGMFAGMANPLPVARYHSLVGSNIPADLTVNARFGEMVMAVRDDRRRVCGFQFHPESILTTHGARLLEQTLAWALAK”, the “soluble on expression in E. coli” value was “soluble”. Then “MADIPLSGKPRTQVLRWQRQNWVAGLRWEEKQKSVRRAPVQRRGVLNVVLTVKQGKSRLTALGQIEAGWRHQKLYSLAALFSQQCTPNGYGVYQLDDGRQVFLATVKGMPSPMADVIGTPDQIIRARELFLSFNPAPEDGWTIPSSPEFPLSWNTLVGQVSSAQLRFARVAGVSNPLRPYGAGVLSVAALLGGAVWWSRLPEPPVAPVVQELPAPVQDVFKKTPEPVYLPHPWADMPVARHFLNRCQRWRAAVPVSLDRWRLERIRCSAEGLETVYQRQPGGTAAGFAERVKQVFKRTPVFNLVSGGNEGVVFIPWAKFTLQDETAPDAGTQLMQAVSWFQSRQVSFSLSLEHHHHHH”, with “not soluble”.
